Experimental findings from PMC3602352 are described below.

For data set [1], the target named is V66A/L68V CzrA (Staphylococcus aureus). The data set is described as follows: SEC.
The target of data set [2] is V66A CzrA (Staphylococcus aureus). The data set is described as follows: SEC.
The target in data set [3] is L68V CzrA (Staphylococcus aureus). Put plainly: SEC.
Data set [4] concerns the target L68A CzrA (Staphylococcus aureus). Put plainly: SEC.
The target in data set [5] is V66A CzrA (Staphylococcus aureus, UniProt O85142 1-106, V66A). The data set is described as follows: fluorescence anisotropy.
For data set [6], the target named is H96C CzrA (Staphylococcus aureus, UniProt O85142 1-106, H96C). Put plainly: fluorescence anisotropy.

For the molecule V66A/L68V CzrA (natural protein), the stoichiometry N in data set [1] came to 2.

Turning to V66A CzrA (natural protein), the stoichiometry N in data set [2] was 2. In data set [3], L68V CzrA (natural protein) registered a stoichiometry N of 2. In data set [4], L68A CzrA (natural protein) displayed a stoichiometry N of 2.

B1: 28-bp native CzrO (dsDNA)
DNA 1: TAATATATGAACAAATATTCAGATGAAA
DNA 2: TTTCATCTGAATATTTGTTCATATATTA
Turning to B1, the binding signal in data set [5] was 460 fold tighter than Zn2 wild-type CzrA. Further, the binding result in data set [6] is “binds”.
